Test results reported in patent US10398755B2, “Clusterin pharmaceuticals and treatment methods using the same” (UNIVERSITY OF SOUTHERN CALIFORNIA, priority 2009, dated 2019).

Target: T1, pro-MMP-9, MMP-9, MMP-9-ΔC (Mus musculus, UniProt P41245)
T1 construct: mixture of 30-100 ng of pro-MMP-9, MMP-9, and MMP-9-ΔC; pro-MMP-9, propeptide-cleaved MMP-9 (MMP-9), and MMP-9 with both propeptide and C-terminal region cleaved (MMP-9-ΔC); MMP-9 with both propeptide and C-terminal region cleaved (MMP-9-ΔC); purchased R&D Systems; host or cells: mouse myeloma cell line (NSO)
Test: In vitro protein binding assay (CLU-His pull-down, gelatin zymography), MMP-9 forms
Experimental: (A) Recombinant proteins, Pro-MMP-9, MMP-9, MMP-9-ΔC, CLU-His were incubated together, and bound to agarose beads coupled or uncoupled with Anti-(His)6 antibody in two different binding buffers containing Brij 35 concentrations, 0.04% or 0.002%. MMPs bound to the beads were obtained by washing with the corresponding binding buffer to resolve on gelatin zymography. Three different volumes of each sample were loaded to compare the relative density. (B) Pro-MMP-9 bound to CLU coupled to agarose beads, prepared as in (A), was incubated in the presence or absence of APMA for 1 h at RT, prior to separation of beads (B) and supernatant (S) fractions, which were resolved by zymography. Arrow indicates MMP-9 processed by APMA.
A mixture of MMP-2, MMP-9, and C-terminal truncated MMP-9 (9-ΔC) was incubated with His-tagged CLU, used in a pull-down assay and resolved on a gelatin zymography gel. The input and bound samples were loaded in a series of dilution.
To make various processed forms of MMPs, pro-MMPs were incubated with 1 mM APMA in TSCB buffer at 37° C. for 4 h to make C-terminal truncated processed MMP-9 (MMP-9-ΔC) [Murphy, 1995]. CLU-His (2.5 μg) was incubated with mixture of 30-100 ng of pro-MMP-9, MMP-9, and MMP-9-ΔC, in the TSCB buffer with 0.002 or 0.04% Brij 35 for 1 h at 4° C. followed by additional incubation for 1.5 h with anti-His tag antibody-conjugated agarose beads. The beads were washed three times with the binding buffer, and dissolved in 1×SDS sample loading buffer. Relative amounts of bound MMPs were assessed on the gelatin zymography. In order to perform CLU binding domain analysis, pro-MMP-9 bound to CLU-coupled beads was prepared, as described above, and then divided into two aliquots. They were incubated with and without 1 mM APMA at RT for 1 h in TSCB buffer on the rotator. The beads (B) were spun down and solution (S) was separated. The beads were washed with TSCB and resuspended in SDS sample loading buffer. Equivalent volume of S and B fraction were subjected to gelatin zymography.
Next, we tested the interaction of secreted CLU using mouse recombinant proteins. We used purified recombinant proteins of MMP-2, MMP-9, and CLU that were secreted from a mouse myeloma cell line (NSO). All of the proteins were purchased from R&D Systems. A mixture of MMP-2, MMP-9, and C-terminal truncated MMP-9 (9-ΔC) was incubated with His-tagged CLU, and subjected to the pull-down assay, using 150 mM NaCl-containing binding buffer and anti-His tag antibody resins. Portions of the input samples (Input) and proteins bound to the antibody (Bound) were resolved on the gelatin zymography gel.
The recombinant CLU contains a (His)6-Tag at the C-terminus of the protein, which was used for pull-down experiments with anti-His tag antibody beads. It was previously reported that CLU also binds to MT6-MMP/mmp-25 and that the hemopexin domain in the MMP C-terminal region is required for their interaction (Matsuda et al., 2003). To use as an internal control for the binding experiment, we removed part of MMP-9 (MMP-9-ΔC) by promoting self-processing by APMA (4-aminophenylmercuric acetate) treatment. For the in vitro binding assay we mixed MMP-2, MMP-9, and MMP-9-ΔC (FIG. 7).
Since different detergent concentrations affected the extent of inhibition of MMP-9 activity by CLU, we tested whether detergents may influence the binding affinity of CLU for MMP-9. To test this possibility, CLU pull down assay was performed. […]

T1 sequence (P41245 20-730, stated change not applied): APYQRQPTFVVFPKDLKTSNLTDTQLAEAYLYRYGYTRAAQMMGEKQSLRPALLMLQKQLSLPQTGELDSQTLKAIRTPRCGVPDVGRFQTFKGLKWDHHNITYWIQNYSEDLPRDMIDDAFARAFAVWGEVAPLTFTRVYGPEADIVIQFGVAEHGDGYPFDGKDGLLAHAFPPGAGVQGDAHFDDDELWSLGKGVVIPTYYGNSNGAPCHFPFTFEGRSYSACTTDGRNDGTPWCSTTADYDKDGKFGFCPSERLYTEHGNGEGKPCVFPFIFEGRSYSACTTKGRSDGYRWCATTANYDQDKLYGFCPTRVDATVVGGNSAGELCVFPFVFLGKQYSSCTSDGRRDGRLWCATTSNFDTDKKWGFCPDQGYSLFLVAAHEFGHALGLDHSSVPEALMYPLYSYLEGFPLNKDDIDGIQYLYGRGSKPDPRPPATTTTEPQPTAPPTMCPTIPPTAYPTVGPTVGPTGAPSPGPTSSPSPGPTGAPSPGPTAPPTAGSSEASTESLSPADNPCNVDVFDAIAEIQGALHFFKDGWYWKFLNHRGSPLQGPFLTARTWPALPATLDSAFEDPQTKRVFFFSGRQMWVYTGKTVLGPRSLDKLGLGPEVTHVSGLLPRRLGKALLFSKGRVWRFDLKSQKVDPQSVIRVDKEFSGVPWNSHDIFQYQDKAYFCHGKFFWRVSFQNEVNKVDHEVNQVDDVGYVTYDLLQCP

- affinity of pro-MMP-9 for CLU relative to the other forms of MMP-9 (band densities, Image J): at least 10 times
B1: CLU: secreted disulfide-linked heterodimeric glycoprotein (70-80 KD); assays used recombinant mouse CLU with C-terminal (His)6 (protein, UniProt Q06890 22-448, looked up)
Clusterin: EQEVSDNELQELSTQGSRYINKEIQNAVQGVKHIKTLIEKTNAERKSLLNSLEEAKKKKEDALEDTRDSEMKLKAFPEVCNETMMALWEECKPCLKHTCMKFYARVCRSGSGLVGQQLEEFLNQSSPFYFWMNGDRIDSLLESDRQQSQVLDAMQDSFARASGIIDTLFQDRFFARELHDPHYFSPIGFPHKRPHFLYPKSRLVRSLMSPSHYGPPSFHNMFQPFFEMIHQAQQAMDVQLHSPAFQFPDVDFLREGEDDRTVCKEIRRNSTGCLKMKGQCEKCQEILSVDCSTNNPAQANLRQELNDSLQVAERLTEQYKELLQSFQSKMLNTSSLLEQLNDQFNWVSQLANLTQGEDKYYLRVSTVTTHSSDSEVPSRVTEVVVKLFDSDPITVVLPEEVSKDNPKFMDTVAEKALQEYRRKSRAE
modifications: C-terminal His6 tag
- sensitivity of pro-MMP-9 affinity for CLU to detergent concentration (0.002% vs 0.04% Brij 35): not sensitive to the detergent concentration
